Assay results taken from article PMC6426973, “Oligomeric self-association contributes to E2A-PBX1-mediated oncogenesis”.

Target: T1, E2A-PBX1 ΔPBC-B (MBP fusion) (UniProt P15923 1-483+P40424:232-430, internal_change)
T1 sequence: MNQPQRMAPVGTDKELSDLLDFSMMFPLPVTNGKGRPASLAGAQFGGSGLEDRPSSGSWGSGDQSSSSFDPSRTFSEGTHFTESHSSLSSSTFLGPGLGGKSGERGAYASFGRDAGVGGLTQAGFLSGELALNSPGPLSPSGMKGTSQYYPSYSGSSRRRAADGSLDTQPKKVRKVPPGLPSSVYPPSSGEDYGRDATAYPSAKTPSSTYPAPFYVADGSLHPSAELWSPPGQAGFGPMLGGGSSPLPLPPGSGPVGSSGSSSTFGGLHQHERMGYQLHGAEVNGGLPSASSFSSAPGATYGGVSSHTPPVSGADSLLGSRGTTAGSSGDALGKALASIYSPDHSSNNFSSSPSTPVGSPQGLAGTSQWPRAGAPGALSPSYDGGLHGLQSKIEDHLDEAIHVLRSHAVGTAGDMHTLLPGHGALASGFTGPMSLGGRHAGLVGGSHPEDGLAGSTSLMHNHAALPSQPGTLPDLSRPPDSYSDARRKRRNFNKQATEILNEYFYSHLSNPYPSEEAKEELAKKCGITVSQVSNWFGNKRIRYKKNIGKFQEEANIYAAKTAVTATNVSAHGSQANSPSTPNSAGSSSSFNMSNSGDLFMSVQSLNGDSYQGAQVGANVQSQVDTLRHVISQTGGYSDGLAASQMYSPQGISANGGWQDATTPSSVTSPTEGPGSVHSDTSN
Assay: EMSA; LightShift Chemiluminescent EMSA kit (manufacturer's conditions), room temperature 20 min, 5% TBE gel in 0.5X TBE; salt and pH not stated
Conditions: protein: recombinant; tags: MBP; label: biotin (end label); blunt

B1: PBX1 consensus site oligonucleotide (dsDNA)
DNA 1: TGATTGATTGATTGAT
DNA 2: ATCAATCAATCAATCA
binding result: no binding
